From US20130230533A1 (Regeneron, published 2013)

T1: Monomeric monkey CD48-mmH (monkey)
T1 construct: Soluble monkey CD48 with a myc-myc-hexa-histidine C-terminal tag; the whole entry is the construct; also called mfCD48-mmH
T1 chain: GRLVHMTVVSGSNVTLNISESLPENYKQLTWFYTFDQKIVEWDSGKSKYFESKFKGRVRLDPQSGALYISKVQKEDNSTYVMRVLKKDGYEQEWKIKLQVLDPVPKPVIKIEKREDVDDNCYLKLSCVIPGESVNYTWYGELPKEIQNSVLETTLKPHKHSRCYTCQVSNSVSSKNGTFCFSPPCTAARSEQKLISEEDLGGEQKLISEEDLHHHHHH

T2: Dimeric monkey CD48-mFc (monkey)
T2 construct: Soluble monkey CD48 with a C-terminal Fc fusion [mFc]; the whole entry is the construct
T2 chain: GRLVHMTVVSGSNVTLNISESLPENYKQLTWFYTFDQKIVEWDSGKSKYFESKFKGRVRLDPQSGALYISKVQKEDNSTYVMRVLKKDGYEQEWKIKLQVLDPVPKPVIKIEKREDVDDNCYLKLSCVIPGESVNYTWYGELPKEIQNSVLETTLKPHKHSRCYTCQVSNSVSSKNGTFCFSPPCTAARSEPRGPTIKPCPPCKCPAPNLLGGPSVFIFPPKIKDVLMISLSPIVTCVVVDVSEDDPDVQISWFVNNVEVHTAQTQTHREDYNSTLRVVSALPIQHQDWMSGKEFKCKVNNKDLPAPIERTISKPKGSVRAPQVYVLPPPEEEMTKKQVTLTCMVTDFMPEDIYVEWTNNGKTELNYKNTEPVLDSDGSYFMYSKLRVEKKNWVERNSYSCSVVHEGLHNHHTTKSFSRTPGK

T3: Monomeric human CD48-mmH (human)
T3 chain: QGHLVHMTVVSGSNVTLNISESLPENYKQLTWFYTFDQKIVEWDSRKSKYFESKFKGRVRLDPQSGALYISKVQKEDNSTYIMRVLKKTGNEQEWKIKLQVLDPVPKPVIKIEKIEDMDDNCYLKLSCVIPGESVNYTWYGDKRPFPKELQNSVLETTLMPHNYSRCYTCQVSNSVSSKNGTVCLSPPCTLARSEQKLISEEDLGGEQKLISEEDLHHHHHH

T4: Dimeric human CD48-mFc (human)
T4 construct: the whole entry is the construct; also called hCD48-mFc
T4 chain: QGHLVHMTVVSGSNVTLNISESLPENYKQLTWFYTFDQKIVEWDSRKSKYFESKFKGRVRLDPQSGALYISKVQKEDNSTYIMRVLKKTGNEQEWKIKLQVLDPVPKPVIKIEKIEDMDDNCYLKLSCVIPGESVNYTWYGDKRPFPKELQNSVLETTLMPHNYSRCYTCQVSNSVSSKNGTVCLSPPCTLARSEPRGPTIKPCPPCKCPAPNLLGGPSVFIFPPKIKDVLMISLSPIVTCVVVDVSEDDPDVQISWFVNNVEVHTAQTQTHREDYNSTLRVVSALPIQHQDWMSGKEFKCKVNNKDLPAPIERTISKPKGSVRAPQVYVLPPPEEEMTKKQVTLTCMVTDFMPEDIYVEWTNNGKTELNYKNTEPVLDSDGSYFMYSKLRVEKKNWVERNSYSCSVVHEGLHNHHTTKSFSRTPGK


Assays:
[1] = target: T1, Monomeric monkey CD48-mmH; assay: SPR (Biacore), antibody captured by anti-Fc, CD48 in solution, 25 C
Method: (§1) Measurements were conducted on a T100-2 BIACORE™ instrument (Biacore Life Sciences division of GE Healthcare, Piscataway, N.J.). Antibodies (either with mouse Fc [designated “H2M” or “H3M”] or human IgG4 Fc [designated “H4H”]) were captured through an anti-Fc chip surface, and CD48 was flowed over the surface either in a monomeric (soluble CD48 expressed with a myc-myc-hexa-histidine C-terminal tag [mmH]) or dimeric (soluble CD48 expressed with a C-terminal Fc fusion [mFc]) format.
(§2) The soluble CD48 was applied to the flow cell in separate injections at different concentrations, and kinetic association (kₐ) and dissociation (kd) rate constants were determined by fits to the kinetic binding data using Biacore software. Binding dissociation equilibrium constants and dissociation half-times were calculated from the kinetic rate constants as: KD=kd/kₐ; t_{1/2}=(ln 2/kd) (units: ka=M⁻¹*s⁻¹; kd=s⁻¹; KD=M; T½=min) (Tables 3-6).

Dimeric monkey CD48-mFc [2] = target: T2, Dimeric monkey CD48-mFc; assay: as above
Method: as §1, §2

[3] = target: T1, Monomeric monkey CD48-mmH; assay: SPR (Biacore), antibody captured by anti-Fc, CD48 in solution, 37 C
Method: as §1, §2

Monomeric human CD48-mmH = target: T3, Monomeric human CD48-mmH; assay: as above
Method: as §1, §2

Dimeric human CD48-mFc = target: T4, Dimeric human CD48-mFc; assay: as above
Method: as §1, §2

Dimeric monkey CD48-mFc [4] = target: T2, Dimeric monkey CD48-mFc; assay: as above
Method: as §1, §2

Kd [1] [nM] | T½ [1] [h] | koff [1] [s⁻¹] | kon [1] [M⁻¹ s⁻¹] | Kd (Dimeric monkey CD48-mFc [2]) [nM] | T½ (Dimeric monkey CD48-mFc [2]) [h] | koff (Dimeric monkey CD48-mFc [2]) [s⁻¹] | kon (Dimeric monkey CD48-mFc [2]) [M⁻¹ s⁻¹] | Kd [3] [nM] | T½ [3] [h] | koff [3] [s⁻¹] | kon [3] [M⁻¹ s⁻¹] | Kd (Monomeric human CD48-mmH) [nM] | T½ (Monomeric human CD48-mmH) [h] | koff (Monomeric human CD48-mmH) [s⁻¹] | kon (Monomeric human CD48-mmH) [M⁻¹ s⁻¹] | Kd (Dimeric human CD48-mFc) [nM] | T½ (Dimeric human CD48-mFc) [h] | koff (Dimeric human CD48-mFc) [s⁻¹] | kon (Dimeric human CD48-mFc) [M⁻¹ s⁻¹] | Binder | further results
1.1 | 0.383 | 0.000508 | 461000 | 0.0968 | 3.83 | 5.02e-05 | 519000 | 4.53 | 0.133 | 0.00145 | 320000 | 5.94 | 0.183 | 0.00102 | 172000 | 0.065 | 3.22 | 5.98e-05 | 920000 | H4H1772P (antibody, human IgG4, V domains shown, Human IgG4 Fc (H4H)) VH: EVQLVESGGGLVQPGGSLRLSCAASGFTFSSYWMSWVRQAPGKGLEWVANIMRDGSEKYYVDSVKGRFTISRDNAKNSLYLQMNSLRGEDTAVYYCARERGFYTNYGNWFDPWGQGTLVTVSS VL: DIVMTQSPLSLTVTPGESASISCRSSQSLLHSYGYNSLDWYLQKPGQSPQFLIYLVSNRASGVPDRFSGSGSGTDFTLKISRVEAEDVGVYYCMQVLQTPYTFGQGTKLEIK | Kd (Dimeric monkey CD48-mFc [4]): 0.0947 nM; T½ (Dimeric monkey CD48-mFc [4]): 2.63 h; koff (Dimeric monkey CD48-mFc [4]): 7.31e-05 s⁻¹; kon (Dimeric monkey CD48-mFc [4]): 772000 M⁻¹ s⁻¹
0.298 | 0.9 | 0.000215 | 720000 | 0.131 | 1.72 | 0.000113 | 858000 | 0.44 | 1.1 | 0.000174 | 396000 | 0.662 | 0.367 | 0.000533 | 804000 | 0.0138 | 6.25 | 3.08e-05 | 2.23e+06 | H4H1770P (antibody, human IgG4, V domains shown, Human IgG4 Fc (H4H)) VH: QVQLVQSGAEVKKPGAAVKVSCKASGYTFTAYGISWVRQAPGQGLEWMGWISAYDGDTNNAQKFQGRVTMTTDTSSSTAYMELRSLGSDDTAVYYCARDRYSSSSGYFDYWGQGTLVTVSS VL: DIQMTQSPSSVSASVGDRVTITCRASQDISSWLAWSQQKPGKAPKALIYAASSLQSGVPSRFSGSGSGTDFTLTISSLQPEDFATYYCQQANSFPYTFGQGTKLEIK | Kd (Dimeric monkey CD48-mFc [4]): 0.0911 nM; T½ (Dimeric monkey CD48-mFc [4]): 1.38 h; koff (Dimeric monkey CD48-mFc [4]): 0.000139 s⁻¹; kon (Dimeric monkey CD48-mFc [4]): 1.53e+06 M⁻¹ s⁻¹
0.289 | 2.52 | 7.63e-05 | 263000 | 0.0525 | 9.3 | 2.07e-05 | 395000 | 1.36 | 0.717 | 0.000267 | 197000 | 0.824 | 1.8 | 0.000107 | 130000 | 0.0439 | 12.1 | 1.6e-05 | 363000 | H4H1774P (antibody, human IgG4, V domains shown, Human IgG4 Fc (H4H)) VH: QVQLVESGGGVVQPGRSLRLSCAASGFTFSNYGMHWVRQAPGKGLEWVAVIWYDESSKYYTDSVKGRFTISRDNSQNTLYLQMTSLRAEDTAVYYCARDRWTYSHYFEYWGQGTLVTVSS VL: DIQMTQSPSSVSASVGDRVTITCRASQGISSWVAWYQQKPGKAPKLLIYAASSLQSGVPSRFSGSGSGTDFTLTISSLQPEDFATYYCQQANSFPRTFGQGTKVEIK | Kd (Dimeric monkey CD48-mFc [4]): 0.107 nM; T½ (Dimeric monkey CD48-mFc [4]): 3.57 h; koff (Dimeric monkey CD48-mFc [4]): 5.4e-05 s⁻¹; kon (Dimeric monkey CD48-mFc [4]): 508000 M⁻¹ s⁻¹
0.14 | 4.73 | 4.07e-05 | 291000 | 0.0135 | 29.2 | 6.6e-06 | 488000 | 0.498 | 1.5 | 0.000129 | 260000 | 0.536 | 2.03 | 9.48e-05 | 177000 | 0.0434 | 8.48 | 2.27e-05 | 522000 | H4H1775P (antibody, human IgG4, V domains shown, Human IgG4 Fc (H4H)) VH: QVQLVESGGGVVQPGRSLRLSCAASGFTFSNYGMHWVRQAPGKGLEWVAVIWYDESGKHYADSVKGRFTISRDNSQNTLYLQMTSLRAEDTAVYYCARDRWTYSHYFEYWGQGTLVTVSS VL: DIQMTQSPSSVSASVGDRVTITCRASQDISSWVAWYQQKPGKAPKLLIYAASSLQSGVPSRFSGSGSGTDFTLTISSLQPEDFATYYCQQANSFPRTFGQGTKVEIK | Kd (Dimeric monkey CD48-mFc [4]): 0.0593 nM; T½ (Dimeric monkey CD48-mFc [4]): 4.85 h; koff (Dimeric monkey CD48-mFc [4]): 3.97e-05 s⁻¹; kon (Dimeric monkey CD48-mFc [4]): 669000 M⁻¹ s⁻¹
0.375 | 1.7 | 0.000113 | 301000 | 0.0606 | 6.07 | 3.17e-05 | 522000 | 1.04 | 0.667 | 0.000289 | 277000 | 0.495 | 1.88 | 0.000102 | 207000 | 0.0594 | 4.2 | 4.59e-05 | 772000 | H4H1779P (antibody, human IgG4, V domains shown, Human IgG4 Fc (H4H)) VH: QVQLVESGGGVVQPGRSLRLSCAASGFTFSNYGMHWVRQAPGKGLEWVAVIWYDESSKHYADSVKGRFTISRDNSQNTLYLQMTSLRAEDTAVYYCARDRWTYSHYFEYWGQGTLVTVSS VL: DIQMTQSPSSVSASVGDRVTITCRASQDISSWVAWYQQKPGKAPKLLIYAASSLQSGVPSRFSGSGSGTDFTLTISSLQPEDFATYYCQQANSFPRTFGQGTKVEIK | Kd (Dimeric monkey CD48-mFc [4]): 0.0829 nM; T½ (Dimeric monkey CD48-mFc [4]): 3.22 h; koff (Dimeric monkey CD48-mFc [4]): 5.98e-05 s⁻¹; kon (Dimeric monkey CD48-mFc [4]): 721000 M⁻¹ s⁻¹
0.453 | 0.4 | 0.000477 | 1.05e+06 | 0.0587 | 3.5 | 5.51e-05 | 939000 | 1.34 | 0.217 | 0.000877 | 657000 | 0.488 | 0.35 | 0.000547 | 1.12e+06 | 0.0166 | 4 | 4.81e-05 | 2.89e+06 | H4H1771P (antibody, human IgG4, V domains shown, Human IgG4 Fc (H4H)) VH: QVQLVQSGTEVKKPGASVKVSCKVSGYTLIDLSIHWVRQAPGEGLEWMGGFDPEESETIYAQKFQGRVTMTEDTSTDTAYMELSSLRSEDTAVYYCVTEPIFGILIHESWGQGTLVTVSS VL: DIVMTQTPLSSPVTLGQPASISCRSSHSPVHSNGHTYLSWLQQRPGQPPRILIYKISRRFSGVPDRFSGSGAGTDFTLKISRVETEDVGIYYCMQASQFPWTFGQGTKVEIK | Kd (Dimeric monkey CD48-mFc [4]): 0.0621 nM; T½ (Dimeric monkey CD48-mFc [4]): 1.88 h; koff (Dimeric monkey CD48-mFc [4]): 0.000102 s⁻¹; kon (Dimeric monkey CD48-mFc [4]): 1.64e+06 M⁻¹ s⁻¹
